The target in one assay is T1, BMP4 (Homo sapiens, UniProt P12644).
T1 sequence (P12644 293-408): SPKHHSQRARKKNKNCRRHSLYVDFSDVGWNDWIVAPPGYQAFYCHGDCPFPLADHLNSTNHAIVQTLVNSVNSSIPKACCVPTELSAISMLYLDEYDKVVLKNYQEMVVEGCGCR
Nature of the assay: BMP4 signal transduction inhibitory activity: SMAD1 phosphorylation by BMP4 stimulus, AlphaLISA SureFire, A549 cells. In kind it is cell-based. The settings on record: for aLISA BMP4: A549 cells; for aLISA BMP4 (0.2 nM) % inh: peptide conc. in assay 0.2, 2, 20 nM. On the technique in general: In Alpha technology, singlet oxygen from a donor bead excites a nearby acceptor bead.

Another assay has as its target T2, BMP7 (Homo sapiens, UniProt P18075).
T2 sequence (P18075 293-431): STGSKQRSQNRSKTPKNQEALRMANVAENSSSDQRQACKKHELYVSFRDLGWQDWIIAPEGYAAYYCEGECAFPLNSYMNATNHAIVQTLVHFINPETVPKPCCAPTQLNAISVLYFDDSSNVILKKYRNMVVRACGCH
The experiment in a line: BMP7 signal transduction inhibitory activity: SMAD1 phosphorylation by BMP7 stimulus, A549 cells. In kind it is cell-based. The settings on record: for aLISA BMP7: A549 cells; for aLISA BMP7 (10 nM) % inh: peptide conc. in assay 1, 10, 100 nM. The method in brief: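 SMAD1 phosphorylation readout in A549 cells stimulated with BMP7 (10 nM). Peptides were tested at three levels (e.g. 1/10/100, 10/100/1,000, 100/300/1,000, 10/30/90 nM) or at eight points, 1/3 steps, from 100 or 1,000 nM. Recombinant Noggin served as positive control at matching concentrations.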

Where [1] appears, read: SMAD1 phosphorylation, peptides of Synthesis 2, peptide 0.02, 0.2, 2 nM.
Setting [2] is: 10 nM BMP7, peptides of Synthesis 2, peptide 1, 10, 100 nM.
[3] abbreviates: SMAD1 phosphorylation, BMP4 0.2 nM.
Where [4] appears, read: SMAD1 phosphorylation, BMP7 10 nM.

Numbered stars: 1 amine (or outer) side, 2 acyl side, 3 side chain; on linkers, the order of the positions; unused ones are H or OH. Bridge positions count the residues as written; N and C are the ends. Square brackets hold non-standard residues; d marks the D form. Side chains are listed from the residue outwards. Ends that are not written are not given here. Peptide text beside a SMILES is read from it. I, II: the chains in the order shown. * marks the point of attachment. ξ: configuration not given here. KCOpipzaa = N6-(4-(carboxymethyl)piperazine-1-carbonyl)-L-lysine, O=C(NCCCC[C@H](N[*:1])C(=O)[*:2])N1CCN(CC(=O)[*:3])CC1; Bph3C = (S)-2-amino-3-(3'-chloro-[1,1'-biphenyl]-4-yl)propanoic acid, O=C([C@H](Cc1ccc(-c2cccc(Cl)c2)cc1)N[*:1])[*:2]; X10 = N=C(N)NCCC[C@H](CC(=O)[C@H](CCCCNC(=O)N1CCN(CC(=O)O)CC1)N[*:2])C(=O)[*:1]; X9 = O=C([C@H](Cc1ccc(-c2cccc(F)c2)cc1)N[*:1])[*:2]; Ala(2-NH2-4-pyridyl) = Nc1cc(C[C@H](N)C(=O)O)ccn1; 3Pal(6-Ph) = N[C@@H](Cc1ccc(-c2ccccc2)nc1)C(=O)O; Phe(4-COOH) = N[C@@H](Cc1ccc(C(=O)O)cc1)C(=O)O; Piperazinyl(4-CH2COOH) = O=C(O)CN1CCN(*)CC1; Bip = N[C@@H](Cc1ccc(-c2ccccc2)cc1)C(=O)O; Phe(4-F) = N[C@@H](Cc1ccc(F)cc1)C(=O)O; Hyp = O=C(O)[C@@H]1C[C@@H](O)CN1; NMeF = CN[C@@H](Cc1ccccc1)C(=O)O; Aad = N[C@@H](CCCC(=O)O)C(=O)O; Cha = N[C@@H](CC1CCCCC1)C(=O)O; Abu = CC[C@H](N)C(=O)O; X5 = O=C(C[*:1])[*:2]; CO = O=C([*:1])[*:2]; ξC = NC(CS)C(=O)O; βAla = NCCC(=O)O

The values below come from patent US20250361274A1, “PEPTIDE AND PEPTIDE-CONTAINING AGENT” (PEPTIDREAM INC., priority 2022, published 2025).

“39 ({CH2CO}-AQVYVDK[Bip]PYP[Bip]Y[Phe(4-COOH)][Phe(4-COOH)]SCG-NH2; thioether N-17; not fully specified) [compound 39]”: in the assay with BMP4 (setting [1]), the “aLISA BMP4” value was “C (showed an inhibitory activity of less than 50% in 0.2 nM-addition zone and showed an inhibitory activity of 50% or more in 2 nM-addition zone were defined as B or C)”. Also, the “aLISA BMP7” value with BMP7 (setting [2]) is “ND (the inhibitory activity was less than 30% at the maximum concentration evaluated)”.

As for “350 (FG[NMeF]G[Bip]GDD[Cha]A[NMeF]L[Abu]CG-NH2; not fully specified (N-terminus, bridges)) [compound 350]”, the “aLISA BMP4 (0.2 nM) % inh” value with BMP4 (setting [3]) is “ND (the inhibitory activity was less than 30% at the maximum concentration evaluated)”. In the assay with BMP7 (setting [4]), the “aLISA BMP7 (10 nM) % inh” value is “D (showed less than 30% of inhibitory activity in 10 nM-addition zone and showed 30% or more of inhibitory activity in 100 nM-addition zone)”.

Consider “419 (FG[NMeF]G[3Pal(6-Ph)]GDE[Cha][Aad][NMeF]L[Abu]C[βAla][dE]) [compound 419]”, for which the “aLISA BMP4 (0.2 nM) % inh” value in the assay with BMP4 (BMP4 0.2 nM stimulus) is “ND (the inhibitory activity was less than 30% at the maximum concentration evaluated)”. Besides, the “aLISA BMP7 (10 nM) % inh” value with BMP7 (BMP7 10 nM stimulus) is “D (showed less than 30% of inhibitory activity in 10 nM-addition zone and showed 30% or more of inhibitory activity in 100 nM-addition zone)”.

As for “410 (FG[NMeF]G[3Pal(6-Ph)]GDE[Cha][Aad][NMeF]L[Phe(4-COOH)]C-NH2; not fully specified) [compound 410]”, in the assay with BMP4 (BMP4 0.2 nM stimulus), the “aLISA BMP4 (0.2 nM) % inh” value is listed as “ND (the inhibitory activity was less than 30% at the maximum concentration evaluated)”. Also, the “aLISA BMP7 (10 nM) % inh” value with BMP7 (BMP7 10 nM stimulus) is “D (showed less than 30% of inhibitory activity in 10 nM-addition zone and showed 30% or more of inhibitory activity in 100 nM-addition zone)”.

As for “77 ({CH2CO}-ERVYVDR[Bip][KCOpipzaa]YP[Bip][Phe(4-F)][Phe(4-COOH)][Phe(4-COOH)]SCG-NH2; thioether N-17; not fully specified) [compound 77]”, the “aLISA BMP4” value with BMP4 (inhibition of SMAD1 phosphorylation by BMP4 stimulus, AlphaLISA, class by peptide concentration zone) is listed as “A (showed an inhibitory activity of 50% or more in a zone to which the peptide was added to in an amount of 0.2 nM)”. The “aLISA BMP7” value in the assay with BMP7 (inhibition of SMAD1 phosphorylation by BMP7 stimulus, AlphaLISA, class by peptide concentration zone) was “C (showed less than 50% of inhibitory activity in 10 nM-addition zone and showed 50% or more of inhibitory activity in 100 nM-addition zone)”.

Turning to `CC(C)[C@@H]1NC(=O)[C@H](Cc2ccc(C(=O)O)cc2)NC(=O)[C@H](C(C)C)NC(=O)[C@H](CCCNC(=N)N)NC(=O)[C@H](CCC(=O)O)NC(=O)CSCC(C(=O)NCC(N)=O)NC(=O)[C@H](CO)NC(=O)[C@H](Cc2ccc(C(=O)O)cc2)NC(=O)[C@H](Cc2ccc(C(=O)O)cc2)NC(=O)[C@H](Cc2ccc(O)cc2)NC(=O)[C@H](Cc2ccc(-c3cccc(F)c3)cc2)NC(=O)[C@@H]2C[C@@H](O)CN2C(=O)[C@H](Cc2ccc(O)cc2)NC(=O)[C@H](CCCCNC(=O)N2CCN(CC(=O)O)CC2)NC(=O)[C@H](Cc2ccc(-c3ccccc3)nc2)NC(=O)[C@H](CCCNC(=N)N)CC(=O)[C@H](CCCCNC(=O)N2CCN(CC(=O)O)CC2)NC1=O` (stereo partly drawn) [SEQ ID No. 311, ClAc-E-R-V-F4COO-V-KCOpipzaa-R-3Py6Ph-KCOpipzaa-Y-Hyp-Bph3F-Y-F4COO-F4COO-S-C-G-NH2] (I: [3Pal(6-Ph)]K([CO-Piperazinyl(4-CH2COOH)])Y[Hyp][X9]Y[Phe(4-COOH)][Phe(4-COOH)]S[ξC]G-NH2 / II: ERV[Phe(4-COOH)]V; linker I:10-II:N via X5; linker I:N-II:C via X10), the “aLISA BMP4” value on BMP4 (setting [1]) is recorded as “A (showed an inhibitory activity of 50% or more in a zone to which the peptide was added to in an amount of 0.2 nM)”. The “aLISA BMP7” value on BMP7 (setting [2]) is “C (showed less than 50% of inhibitory activity in 10 nM-addition zone and showed 50% or more of inhibitory activity in 100 nM-addition zone)”.

Turning to “303 (ERV[Phe(4-COOH)]V[KCOpipzaa]R[Bph3C][KCOpipzaa]Y[Hyp][Bip]Y[Phe(4-COOH)][Phe(4-COOH)]SCG-NH2; not fully specified (N-terminus, bridges); also: cyclic peptide, ring closure not given here) [compound 303]”, the “aLIZA BMP4 (0.2 nM) % inh” value with BMP4 (BMP4 0.2 nM stimulus, peptide conc. in assay 0.02, 0.2, 2 nM, class symbols) was “C (showed less than 30% of inhibitory activity in 0.2 nM-addition zone and showed 30% or more of inhibitory activity in 2 nM-addition zone)”. Besides, in the assay with BMP7 (BMP7 10 nM stimulus, peptide conc. in assay 10, 100, 1000 nM, class symbols), the “aLIZA BMP7 (10 nM) % inh” value was “E (showed less than 30% of inhibitory activity in 100 nM-addition zone and showed 30% or more of inhibitory activity in 1,000 nM-addition zone)”.

Regarding “351 (FG[NMeF]G[Bip]GDD[Cha]A[NMeF]L[Ala(2-NH2-4-pyridyl)]CG-NH2; not fully specified (N-terminus, bridges); also: cyclic peptide, ring closure not given here) [compound 351]”, the “aLISA BMP4 (0.2 nM) % inh” value with BMP4 (setting [3]) is “ND (the inhibitory activity was less than 30% at the maximum concentration evaluated)”. Moreover, the “aLISA BMP7 (10 nM) % inh” value with BMP7 (setting [4]) is “D (showed less than 30% of inhibitory activity in 10 nM-addition zone and showed 30% or more of inhibitory activity in 100 nM-addition zone)”.

As for “333 (FG[NMeF]G[Bip][dA]DD[Cha]A[NMeF]LHCG-NH2; not fully specified (N-terminus, bridges)) [compound 333]”, the “aLISA BMP4 (0.2 nM) % inh” value with BMP4 (setting [3]) is “ND (the inhibitory activity was less than 30% at the maximum concentration evaluated)”. Besides, in the assay with BMP7 (setting [4]), the “aLISA BMP7 (10 nM) % inh” value was “D (showed less than 30% of inhibitory activity in 10 nM-addition zone and showed 30% or more of inhibitory activity in 100 nM-addition zone)”.

Take “359 (FG[NMeF]G[Bip]GDE[Cha]A[NMeF]L[Abu]CG-NH2; not fully specified (N-terminus, bridges)) [compound 359]”: the “aLISA BMP4 (0.2 nM) % inh” value in the assay with BMP4 (setting [3]) was “ND (the inhibitory activity was less than 30% at the maximum concentration evaluated)”. Moreover, the “aLISA BMP7 (10 nM) % inh” value with BMP7 (setting [4]) is “D (showed less than 30% of inhibitory activity in 10 nM-addition zone and showed 30% or more of inhibitory activity in 100 nM-addition zone)”.

In the case of “332 (FG[NMeF]G[Bip]ADD[Cha]A[NMeF]LHCG-NH2; not fully specified (N-terminus, bridges)) [compound 332]”, the “aLISA BMP4 (0.2 nM) % inh” value with BMP4 (setting [3]) was “ND (the inhibitory activity was less than 30% at the maximum concentration evaluated)”. The “aLISA BMP7 (10 nM) % inh” value with BMP7 (setting [4]) is “D (showed less than 30% of inhibitory activity in 10 nM-addition zone and showed 30% or more of inhibitory activity in 100 nM-addition zone)”.

With “100 ({CH2CO}-E[KCOpipzaa]VYV[KCOpipzaa]R[Bip]SYP[Bip]Y[Phe(4-COOH)][Phe(4-COOH)]SC[βAla][dE]-OH; thioether N-17; not fully specified) [compound 100]”, in the assay with BMP4 (inhibition of SMAD1 phosphorylation by BMP4 stimulus, peptides of Synthesis 2, classes A-C, ND), the “aLISA BMP4” value is reported as “A (showed an inhibitory activity of 50% or more in a zone to which the peptide was added to in an amount of 0.2 nM)”. Also, in the assay with BMP7 (inhibition of SMAD1 phosphorylation by BMP7 stimulus, peptides of Synthesis 2, classes A-D, ND), the “aLISA BMP7” value is “C (showed less than 50% of inhibitory activity in 10 nM-addition zone and showed 50% or more of inhibitory activity in 100 nM-addition zone)”.
